Measurements from patent US6855515B1, “Autoantigenic fragments, methods and assays” (Merck & Co., Inc., priority 1998, dated 2005).

B1: PMS1: autoantigen (protein)
chain: MKQLPAATVRLLSSSQIITSVVSVVKELIENSLDAGATSVDVKLENYGFDKIEVRDNGEGIKAVDAPVMAMKYYTSKINSHEDLENLTTYGFRGEALGSICCIAEVLITTRTAADNFSTQYVLDGSGHILSQKPSHLGQGTTVTALRLFKNLPVRKQFYSTAKKCKDEIKKIQDLLMSFGILKPDLRIVFVHNKAVIWQKSRVSDHKMALMSVLGTAVMNNMESFQYHSEESQIYLSGFLPKCDADHSFTSLSTPERSFIFINSRPVHQKDILKLIRHHYNLKCLKESTRLYPVFFLKIDVPTADVDVNLTPDKSQVLLQNKESVLIALENLMTTCYGPLPSTNSYENNKTDVSAADIVLSKTAETDVLFNKVESSGKNYSNVDTSVIPFQNDMHNDESGKNTDDCLNHQISIGDFGYGHCSSEISNIDKNTKNAFQDISMSNVSWENSQTEYSKTCFISSVKHTQSENGNKDHIDESGENEEEAGLENSSEISADEWSRGNILKNSVGENIEPVKILVPEKSLPCKVSNNNYPIPEQMNLNEDSCNKKSNVIDNKSGKVTAYDLLSNRVIKKPMSASALFVQDHRPQFLIENPKTSLEDATLQIEELWKTLSEEEKLKYEEKATKDLERYNSQMKRAIEQESQMSLKDGRKKIKPTSAWNLAQKHKLKTSLSNQPKLDELLQSQIEKRRSQNIKMVQIPFSMKNLKINFKKQNKVDLEEKDEPCLIHNLRFPDAWLMTSKTEVMLLNPYRVEEALLFKRLLENHKLPAEPLEKPIMLTESLFNGSHYLDVLYKMTADDQRYSGSTYLSDPRLTANGFKIKLIPGVSITENYLEIEGMANCLPFYGVADLKEILNAILNRNAKEVYECRPRKVISYLEGEAVRLSRQLPMYLSKEDIQDIIYRMKHQFGNEIKECVHGRPFFHHLTYLPETT
B2: Caspase-7: precursor of caspase-7 used as substrate for granzyme B (protein, UniProt P55210 2-303, looked up)
pro-form: ADDQGCIEEQGVEDSANEDSVDAKPDRSSFVPSLFSKKKKNVTMRSIKTTRDRVPTYQYNMNFEKLGKCIIINNKNFDKVTGMGVRNGTDKDAEALFKCFRSLGFDVIVYNDCSCAKMQDLLKKASEEDHTNAACFACILLSHGEENVIYGKDGVTPIKDLTAHFRGDRCKTLLEKPKLFFIQACRGTELDDGIQADSGPINDTDANPRYKIPVEADFLFAYSTVPGYYSWRSPGRGSWFVQALCSILEEHGKDLEIMQILTRVNDRVARHFESQSDDPHFHEKKQIPCVVSMLTKELYFSQ
modifications: pro-form
notes: precursor of caspase-7 used as substrate for granzyme B
B3: threonyl tRNA synthetase: autoantigen in autoimmune myositis (protein)
chain: MFEEKASSPSGKMGGEEKPIGAGEEKQKEGGKKKNKEGSGDGGRAELNPWPEYIYTRLEMYNILKAEHDSILAEKAEKDSKPIKVTLPDGKQVDAESWKTTPYQIACGISQGLADNTVIAKVNNVVWDLDRPLEEDCTLELLKFEDEEAQAVYWHSSAHIMGEAMERVYGGCLCYGPPIENGFYYDMYLEEGGVSSNDFSSLEALCKKIIKEKQAFERLEVKKETLLAMFKYNKFKCRILNEKVNTPTTTVYRCGPLIDLCRGPHVRHTGKIKALKIHKNSSTYWEGKADMETLQRIYGISFPDPKMLKEWEKFQEEAKNRDHRKIGRDQELYFFHELSPGSCFFLPKGAYIYNALIEFIRSEYRKRGFQEVVTPNIFNSRLWMTSGHWQHYSENMFSFEVEKELFALKPMNCPGHCLMFDHRPRSWRELPLRLADFGVLHRNELSGALTGLTRVRRFQQDDAHIFCAMEQIEDEIKGCLDFLRTVYSVFGFSFKLNLSTRPEKFLGDIEVWDQAEKQLENSLNEFGEKWELNSGDGAFYGPKIDIQIKDAIGRYHQCATIQLDFQLPIRFNLTYVSHDGDDKKRPVIVHRAILGSVERMIAILTENYGGKWPFWLSPRQVMVVPVGPTCDEYAQKVRQQFHDAKFMADIDLDPGCTLNKKIRNAQLAQYNFILVVGEKEKISGTVNIRTRDNKVHGERTISETIERLQQLKEFRSKQAEEEF
B4: glycyl tRNA synthetase: autoantigen in autoimmune myositis (protein)
chain: MDGAGAEEVLAPLRLAVRQQGDLVRKLKEDKAPQVDVDKAVAELKARKRVLEAKELALQPKDDIVDRAKMEDTLKRRFFYDQAFAIYGGVSGLYDFGPVGCALKNNIIQTWRQHFIQEEQILEIDCTMLTPEPVLKTSGHVDKFADFMVKDVKNGECFRADHLLKAHLQKLMSDKKCSVEKKSEMESVLAQLDNYGQQELADLFVNYNVKSPITGNDLSPPVSFNLMFKTFIGPGGNMPGYLRPETAQGIFLNFKRLLEFNQGKLPFAAAQIGNSFRNEISPRSGLIRVREFTMAEIEHFVDPSEKDHPKFQNVADLHLYLYSAKAQVSGQSARKMRLGDAVEQGVINNTVLGYFIGRIYLYLTKVGISPDKLRFRQHMENEMAHYACDCWDAESKTSYGWIEIVGCADRSCYDLSCHARATKVPLVAEKPLKEPKTVNVVQFEPSKGAIGKAYKKDAKLVMEYLAICDECYITEMEMLLNEKGEFTIETEGKTFQLTKDMINVKRFQKTLYVEEVVPNVIEPSFGLGRIMYTVFEHTFHVREGDEQRTFFSFPAVVAPFKCSVLPLSQNQEFMPFVKELSEALTRHGVSHKVDDSSGSIGRRYARTDEIGVAFGVTIDFDTVNKTPHTATLRDRDSMRQIRAEISELPSIVQDLANGNITWADVEARYPLFEGQETGKKETIEE
B5: SRP-72: autoantigen (protein)
chain: ASGGSGGVSVPALWSEVNRYGQNGDFTRALKTVNKILQINKDDVTALHCKVVCLIQNGSFKEALNVINTHTKVLANNSLSFEKAYCEYRLNRIENALKTIESANQQTDKLKELYGQVLYRLERYDECLAVYRDLVRNSQDDYDEERKTNLSAVVAAQSNWEKVVPENLGLQEGTHELCYNTACALIGQGQLNQAMKILQKAEDLCRRSLSEDTDGTEEDPQAELAIIHGQMAYILQLQGRTEEALQLYNQIIKLKPTDVGLLAVIANNIITINKDQNVFDSKKKVKLTNAEGVEFKLSKKQLQAIEFNKALLAMYTNQAEQCRKISASLQSQSPEHLLPVLIQAAQLCREKQHTKAIELLQEFSDQHPENAAEIKLTMAQLKISQGNISKACLILRSIEELKHKPGMVSALVTMYSHEEDIDSAIEVFTQAIQWYQNHQPKSPAHLSLIREAANFKLKYGRKKEAISDLQQLWKQNPKDIHTLAQLISAYSLVDPEKAKALSKHLPSSDSMSLKVDVEALENSAGATYIRKKGGKVTGDSQPKEQGQGDLKKKKKKKKGKLPKNYDPKVTPDPERWLPMRERSYYRGRKKGKKKDQIGKGTQGATAGASSELDASKTVSSPPTSPRPGSAATVSASTSNIIPPRHQKPAGAPATKKKQQQKKKKGGKGGW

Experiments:
Type in all cases: biochemical
caspase-8 = caspase-8 (Homo sapiens, UniProt Q14790); experiment: Cleavage of substrates by purified caspase-8; settings: 50 nM purified caspase-8; HeLa lysates treated with iodoacetamide, or radiolabeled IvTT substrate
caspase-8, sequence (Q14790 217-374 limits assumed, species assumed): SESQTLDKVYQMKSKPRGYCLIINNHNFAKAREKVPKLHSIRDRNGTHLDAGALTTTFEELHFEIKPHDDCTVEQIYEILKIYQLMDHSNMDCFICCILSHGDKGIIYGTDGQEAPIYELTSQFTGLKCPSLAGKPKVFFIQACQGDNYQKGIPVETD
caspase-8, sequence (Q14790 385-479 limits assumed, species assumed): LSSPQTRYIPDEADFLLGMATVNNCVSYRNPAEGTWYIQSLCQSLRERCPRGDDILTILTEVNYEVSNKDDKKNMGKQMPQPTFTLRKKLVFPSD
Procedure: To confirm that these substrates were not cleaved by group III caspases, the substrates were incubated with 50 nM purified caspase-8. Cleavage assays were performed in HeLa cell lysates in which endogenous caspases had first been irreversibly inactivated by 1 mM iodoacetamide (4° C. for 15 min), prior to addition of 5 mM DTT to facilitate exogenous caspase-8 activity. No cleavage of topoisomerase-1, Mi-2, U1-70 kDa, PARP, Ku-70, RNA polymerase II large subunit, SRP-72, NuMA or Ki-67 occurred. Caspase-8 was indeed active in these lysates, as evidenced by robust caspase-3 cleavage products of PARP and U1-70 kDa seen when the IAA ‘poisoning’ step was omitted. Radiolabeled PMS1 and PMS2 (generated by IvTT) were also not cleaved by purified caspase-8.

granzyme B [1] = target: T1, granzyme B (Homo sapiens, UniProt P10144); experiment: Susceptibility of autoantigens to cleavage by purified granzyme B (HeLa lysate immunoblot or immunoprecipitates); settings: in vitro
T1 construct: Some of these preparations were used for the further purification of granzyme B (Tschopp, 1994); endogenous in cells; host or cells: YT cells (human NK cell line), cytoplasmic granules
T1 sequence (P10144 21-247): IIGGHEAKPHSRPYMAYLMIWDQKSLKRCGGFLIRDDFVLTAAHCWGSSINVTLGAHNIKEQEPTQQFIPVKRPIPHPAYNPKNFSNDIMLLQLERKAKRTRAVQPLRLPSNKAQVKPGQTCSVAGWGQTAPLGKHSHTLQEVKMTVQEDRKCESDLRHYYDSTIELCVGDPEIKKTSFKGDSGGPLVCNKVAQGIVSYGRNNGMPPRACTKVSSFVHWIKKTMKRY
Procedure: To determine whether susceptibility to direct cleavage by granzyme B was an isolated feature of PARP, NuMA and DNA-PKcs shown above, or whether it was a more general feature of autoantigens, a variety of well-defined autoantigens selected from across the spectrum of systemic autoimmune diseases were tested for susceptibility to cleavage by purified granzyume B. The efficiency of cleavage of the substrates by purified granzyme B was also noted (Table 3). Initially, a series of autoantibodies of well-defined specificity were used to immunoblot lysates of HeLa cells that had been incubated in vitro with or without granzyme B. Lysates were pre-treated with iodoacetamide (IAA) to prevent interference by endogenous caspase activity.
To perform these studies, HeLa cells were radiolabeled with [^35S] methionine/cysteine, and proteins were immunoprecipitated using human autoantibodies. Protein A-agarose beads containing washed precipitated proteins were resuspended in buffer supporting the activity of granzyme B, and incubated in the absence or presence of added purified granzyme B. Reaction products were visualized using SDS-PAGE and fluorography. To confirm the validity of this approach, several different autoantigens known to be cleaved by granzyme B, as well as several autoantigens and non-autoantigens that are not cleaved by granzyme B, were tested. Using autoantibodies that both immunoblot and immunprecipitate, the cleavage profiles obtained using granzyme B to cleave molecules in lysates (followed by detection with immunoblotting), and after immunoprecipitation (from [^35S]methionine-labeled HeLa lysate) were compared. Identical results were obtained using these 2 methods for cleaved autoantigens (topoisomerase-1, Mi-2, RNA polymerase II large subunit, Ku-70, PARP, and NOR-90), uncleaved autoantigens (Ku-80, Ro 60k), and control substrates (β-tubulin, vinculin). […] Of note, all these additional autoantigens (with the exception of RNA polymerase I) are targeted in autoimmune myositis. However, two other tRNA synthetases (threonyl tRNA synthetase and glycyl tRNA synthetase) that are also autoantigens in autoimmune myositis, were not cleaved using this approach.

granzyme B [2] = target: T1, granzyme B; experiment: In vitro cleavage of substrates by purified granzyme B, kcat/Km from densitometry; settings: ratio of kcat/Km
Procedure: cDNAs for caspase-3, caspase-7, NuMA and PARP were used to drive the synthesis of [^35S]methionine-labeled proteins by coupled transcription/translation in rabbit reticulocyte lysates. For all purified substrates, cleavage reactions were performed in buffer consisting of 50 mM Hepes pH 7.4, 10% sucrose and 5 mM DTT in the presence of the granzyme B concentrations indicated in FIG. 1. After incubation at 37° C. for 15 min, reactions were terminated and samples were electrophoresed on 10% (DNA-PKcs, NuMA), 12% (PARP) or 15% (caspases 3 and 7) SDS-polyacrylamide gels. Radiolabeled proteins and their fragments were visualized by fluorography. Intact and cleaved DNA-PKcs were visualized by immunoblotting with monoclonal antibody 18-2 (Casciola-Rosen et al., 1995).
Catalytic constant (kcat/km) values were calculated essentially as described (Casciola-Rosen et al., 1996). Briefly, subsaturating substrate concentrations were used in each in vitro reaction, and product appearance was assumed to be a first order process. […] Several appropriate densitometry systems are available, e.g. PDI Discovery System, with Quantity One Software, Protein Databases, Inc., (Huntington Station, N.Y.). kcat/Km values were calculated by fitting the dose-response data to the first order rate equation: percent substrate cleavage=100*((1^-e-((kcat*[E]/Km)*time)). […]

Molecule | cleavage by caspase-8 (caspase-8) | susceptibility to cleavage by granzyme B (granzyme B [1]) | efficiency of granzyme B cleavage relative to caspase-3 precursor (granzyme B [2])
B1 | not cleaved | efficiently cleaved | –
B2 | – | – | approximately 6 fold
B3 | – | not cleaved | –
B4 | – | not cleaved | –
B5 | No cleavage | efficiently cleaved | –
